Source: patent publication US20070154901A1 (ANAPHORE, published 2007)

B2: recombinant full length tetranectin (TN123) (other)
chain: GEPPTQKPKKIVNAKKDVVNTKMFEELKSRLDTLAQEVALLKEQQALQTVCLKGTKVHMKCFLAFTQTKTFHEASEDCISRGGTLSTPQTGSENDALYEYLRQSVGNEAEIWLGLNDMAAEGTWVDMTGARIAYKNWETEITAQPDGGKTENCAVLSGAANGKWFDKRCRDQLPYICQFGIV
notes: Found as a trimer in solution; also called rTN123

Assays:
[1] = target: the molecule itself; test: DMSI cross-linking and SDS-PAGE; self-association
Description: (§1) The recombinant tetranectin derivatives TN123, TN3, and TN23, together with the fusion proteins CIIH6FXTN123 and H6FXTN12 or mixtures of these derivatives at 1 mg/ml concentrations in cross-linking buffer (0.1 M Sodium borate, pH 9.1) were incubated with dimethylsuberimidate (DMSI, Sigma). 10 μl aliquots of protein solution were incubated with 1 μl aliquots of DMSI stock solution (20 mg/ml in cross-linking buffer) for 30 minutes at 25° C. before addition of 2 μl quenching buffer (3 M Tris-HCl, pH 9). Subunit exchange between preformed homo-oligomers was induced by subjecting protein mixtures to heat shock treatment. Five μl aliquots of each protein solution (1 mg/ml stocks) were mixed at 0° C. in standard polypropylene microcentrifuge tubes, transferred to a water bath at 70° C. for the time spans indicated, and then further incubated for 15 minutes at 25° C. before reaction with DMSI.
Subunit exchange could be induced by incubating the protein mixture at 70° C. for 15 seconds or longer before cooling to room temperature and addition of DMSI. […] It should be noted, that molecular weight markers have only been included on the SDS-PAGE gels for crude calibration and orientation of the gels.

[2] = target: B2; test: DMSI cross-linking and SDS-PAGE after subunit exchange at 70 C for 15 s or longer; no exchange after 16 h at room temperature
Description: FIG. 10: Cross-linking analysis of TN123 and CIIH6FXTN123. Samples of TN123, CIIH6FXTN123 and mixtures of both were incubated with DMSI and analyzed by SDS-PAGE (12% gel). Before addition of DMSI, protein mixtures were subjected to subunit exchange by incubation at 70° C. for varying length of time. Protein marker of 94, 68, 43 and 30 kDa, top to bottom (lane M). CIIH6FXTN123 fusion protein (lane 1). TN123 (lane 2). DMSI treated CIIH6FXTN123 (lanes 3 and 6). DMSI-treated TN123 (lane 4). Identical samples of DMSI treated mixtures of CIIH6FXTN123 and TN123 without heat exposure (lanes 5 and 7) and heat treated for 2.5 sec, 15 sec, 2.5 min. and 10 min., respectively, before treatment with DMSI (lanes 8-11).
as §1, with “Five μl aliquots of each protein solution (1 mg/ml stocks) were mixed at 0° C. in standard polypropylene microcentrifuge tubes, transferred to a water bath at 70° C. for the time spans indicated, and then further incubated for 15 minutes at 25° C. before reaction with DMSI.” left out

[3] = target: the molecule itself; test: analytical gel filtration on Superose 12; self-association
Description: (§2) FIG. 9: Gel filtration analysis of TN123, TN23, and TN3 Analytical gel filtration of the recombinant tetranectin derivatives TN123, TN23, and TN3 were performed on a Superose 12 HR 10/30 column (Pharmacia, Sweden) with a total volume of 25 ml in 100 mM NaCl and 50 mM Tris-HCl pH 8 and a flow rate of 0.2 ml/min. Vertical bars at peak maxima identify elution profiles for each of the three proteins.
(§3) Analytical gelfiltration of the recombinant tetranectin derivatives TN123, TN3, and TN23 (FIG. 9) were performed on a Superose 12 HR 10/30 column (Pharmacia, Sweden) with a total volume of 25 ml in 100 mM NaCl and 50 mM Tris-HCl pH 8 and a flow rate of 0.2 ml/min. The Kₐᵥ value is defined by, Kₐᵥ=(Ve−Vo)/(Vc−Vo).

[4] = target: the molecule itself; test: DMSI cross-linking with rising DMSI at room temperature, SDS-PAGE; self-association
Description: After completion of the refolding procedure each column was washed with 300 ml buffer containing 0.5 M NaCl and 50 mM Tris-HCl pH 8 to wash away glutathione. The refolded fraction of each protein was then eluted from the NTA-agarose matrix by addition of 20 mM EDTA to the elution buffer. After addition of solid urea to achieve a final concentration of about 8 M to each protein sample and dilution or dialysis to reduce NaCl concentrations to below 5 mM, final purification of each correctly folded fusion protein product was then accomplished by ion exchange chromatography (S-Sepharose, Pharmacia, 1,6 (i.d.) by 90 centimeter column in a buffer containing 8 M urea, 5 mM Tris-HCl (from 1 M stock solution at pH 8) and 25 mM sodium acetate (from 1 M stock solution at pH 5), eluted at 2 ml/min). After dialysis against aqueous buffers (e.g. phosphate buffered saline) each pure and correctly refolded fusion protein was recovered in yields of 2-6 mg per litre of culture grown. […] Reactions were quenched by addition of 5 μl 3M Tris-HCl pH 9 and the samples analyzed by SDS-PAGE under reducing conditions (FIG. 21). Like tetranectin, the H6FXtripb-scFV-(CEA6) fusion protein, of approximately 38 kDa, is hereby shown to be a trimer in solution.

[5] = target: the molecule itself; test: analytical gel filtration on Superose 12
Description: as §2, §3

[6] = target: B2; test: DMSI cross-linking of the mixture with and without heat treatment at 70 C, SDS-PAGE
Description: as §1

[7] = target: B2; test: DMSI cross-linking and SDS-PAGE after heat treatment at 70 C
Description: as §1

B1: tetranectin fusion protein CIIH6FXTN123 (other)
chain: MVRANKRNEALRIESALLNKIAMLGTEKTAEGGSHHHHHHGSIEGRGEPPTQKPKKIVNAKKDVVNTKMFEELKSRLDTLAQEVALLKEQQALQTVCLKGTKVHMKCFLAFTQTKTFHEASEDCISRGGTLSTPQTGSENDALYEYLRQSVGNEAEIWLGLNDMAAEGTWVDMTGARIAYKNWETEITAQPDGGKTENCAVLSGAANGKWFDKRCRDQLPYICQFGIV
notes: Uncleaved fusion protein; Forms homo-trimers, and forms hetero-trimers with TN123; also called H6CIIFXTN123
binding result [1]: binds | binding result [2]: binds

B2
binding result [3]: binds

B3: fusion protein H6FXtripb-scFv(CEA6) (scFv)
chain: MGSHHHHHHGSIQGRSPGTEPPTQKPKKIVNAKKDVVNTKMFEELKSRLDTLAQEVALLKEQQALQTGSQVQLQQSGAEVKKPGSSVKVSCKASGGTFSNSPINWLRQAPGQGLEWMGSIIPSFGTANYAQKFQGRLTITADESTSTAYMELSSLRSEDTAVYYCAGRSHNYELYYYYMDVWGQGTMVTVSSGGGGSGGGGSGGGGSDIQMTQSPSTLSASIGDRVTITCRASEGIYHWLAWYQQKPGKAPKLLIYKASSLASGAPSRFSGSGSGTDFTLTISSLQPDDFATYYCQQYSNYPLTFGGGTKLEIKRAAAEQKLISEEDLNGA
notes: About 38 kDa per monomer; Only its self-association was tested
binding result [4]: binds

B4: recombinant tetranectin derivative TN3 (other)
chain: ALQTVCLKGTKVHMKCFLAFTQTKTFHEASEDCISRGGTLSTPQTGSENDALYEYLRQSVGNEAEIWLGLNDMAAEGTWVDMTGARIAYKNWETEITAQPDGGKTENCAVLSGAANGKWFDKRCRDQLPYICQFGIV
notes: Appeared monomeric
binding result [5]: no binding | binding result [6]: no binding

B5: recombinant tetranectin derivative TN23 (other)
chain: VVNTKMFEELKSRLDTLAQEVALLKEQQALQTVCLKGTKVHMKCFLAFTQTKTFHEASEDCISRGGTLSTPQTGSENDALYEYLRQSVGNEAEIWLGLNDMAAEGTWVDMTGARIAYKNWETEITAQPDGGKTENCAVLSGAANGKWFDKRCRDQLPYICQFGIV
notes: It is a trimer by gel filtration but appeared monomeric after DMSI cross-linking
binding result [3]: binds

B6: fusion protein H6FXTN12 (other)
chain: MGSHHHHHHGSIEGRGEPPTQKPKKIVNAKKDVVNTKMFEELKSRLDTLAQEVALLKEQQALQTV
notes: Uncleaved fusion protein; Formed homo-trimers upon cross-linking; also called H6-rTN12
binding result [1]: binds | binding result [7]: binds
